Experimental data taken from article PMC2234252 (The Journal of Cell Biology, 2008).

Each binder was assayed against T1, hZwint-1 (human, UniProt O95229 1-277) (assay: two-hybrid).
T1 sequence (looked up): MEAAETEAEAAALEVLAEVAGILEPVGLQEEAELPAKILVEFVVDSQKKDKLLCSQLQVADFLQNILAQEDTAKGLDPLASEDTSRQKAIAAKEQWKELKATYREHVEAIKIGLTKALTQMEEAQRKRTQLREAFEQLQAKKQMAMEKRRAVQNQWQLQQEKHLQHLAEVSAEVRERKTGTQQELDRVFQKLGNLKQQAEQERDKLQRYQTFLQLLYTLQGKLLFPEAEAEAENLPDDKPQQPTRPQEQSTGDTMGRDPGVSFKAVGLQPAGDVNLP

| Binder | β-galactosidase assay |
| --- | --- |
| hZW10 DI69AA (natural protein, human, UniProt O43264 1-779, looked up) MASFVTEVLAHSGRLEKEDLGTRISRLTRRVEEIKGEVCNMISKKYSEFLPSMQSAQGLITQVDKLSEAADLLKSRIESEVRRDLHVSTGEFTDLKQQLERDSVVLSLLKQLQEFSTAIEEYNCALTEKKYVTGAQRLEEAQKCLKLLKSRKCFDLKILKSLSMELTIQKQNILYHLGEEWQKLIVWKFPPSKDTSSLESYLQTELHLYTEQSHKEEKTPMPPISSVLLAFSVLGELHSKLKSFGQMLLKYILRPLASCPSLHAVIESQPNIVIIRFESIMTNLEYPSPSEVFTKIRLVLEVLQKQLLDLPLDTDLENEKTSTVPLAEMLGDMIWEDLSECLIKNCLVYSIPTNSSKLQQYEEIIQSTEEFENALKEMRFLKGDTTDLLKYARNINSHFANKKCQDVIVAARNLMTSEIHNTVKIIPDSKINVPELPTPDEDNKLEVQKVSNTQYHEVMNLEPENTLDQHSFSLPTCRISESVKKLMELAYQTLLEATTSSDQCAVQLFYSVRNIFHLFHDVVPTYHKENLQKLPQLAAIHHNNCMYIAHHLLTLGHQFRLRLAPILCDGTATFVDLVPGFRRLGTECFLAQMRAQKGELLERLSSARNFSNMDDEENYSAASKAVRQVLHQLKRLGIVWQDVLPVNIYCKAMGTLLNTAISEVIGKITALEDISTEDGDRLYSLCKTVMDEGPQVFAPLSEESKNKKYQEEVPVYVPKWMPFKELMMMLQASLQEIGDRWADGKGPLAAAFSSSEVKALIRALFQNTERRAAALAKIK | 1.2 |
| hZW10 SE79AA (natural protein, human, UniProt O43264 1-779, looked up) MASFVTEVLAHSGRLEKEDLGTRISRLTRRVEEIKGEVCNMISKKYSEFLPSMQSAQGLITQVDKLSEDIDLLKSRIEAAVRRDLHVSTGEFTDLKQQLERDSVVLSLLKQLQEFSTAIEEYNCALTEKKYVTGAQRLEEAQKCLKLLKSRKCFDLKILKSLSMELTIQKQNILYHLGEEWQKLIVWKFPPSKDTSSLESYLQTELHLYTEQSHKEEKTPMPPISSVLLAFSVLGELHSKLKSFGQMLLKYILRPLASCPSLHAVIESQPNIVIIRFESIMTNLEYPSPSEVFTKIRLVLEVLQKQLLDLPLDTDLENEKTSTVPLAEMLGDMIWEDLSECLIKNCLVYSIPTNSSKLQQYEEIIQSTEEFENALKEMRFLKGDTTDLLKYARNINSHFANKKCQDVIVAARNLMTSEIHNTVKIIPDSKINVPELPTPDEDNKLEVQKVSNTQYHEVMNLEPENTLDQHSFSLPTCRISESVKKLMELAYQTLLEATTSSDQCAVQLFYSVRNIFHLFHDVVPTYHKENLQKLPQLAAIHHNNCMYIAHHLLTLGHQFRLRLAPILCDGTATFVDLVPGFRRLGTECFLAQMRAQKGELLERLSSARNFSNMDDEENYSAASKAVRQVLHQLKRLGIVWQDVLPVNIYCKAMGTLLNTAISEVIGKITALEDISTEDGDRLYSLCKTVMDEGPQVFAPLSEESKNKKYQEEVPVYVPKWMPFKELMMMLQASLQEIGDRWADGKGPLAAAFSSSEVKALIRALFQNTERRAAALAKIK | 131 |
| hZW10 GLI58AAA (natural protein, human, UniProt O43264 1-779, looked up) MASFVTEVLAHSGRLEKEDLGTRISRLTRRVEEIKGEVCNMISKKYSEFLPSMQSAQAAATQVDKLSEDIDLLKSRIESEVRRDLHVSTGEFTDLKQQLERDSVVLSLLKQLQEFSTAIEEYNCALTEKKYVTGAQRLEEAQKCLKLLKSRKCFDLKILKSLSMELTIQKQNILYHLGEEWQKLIVWKFPPSKDTSSLESYLQTELHLYTEQSHKEEKTPMPPISSVLLAFSVLGELHSKLKSFGQMLLKYILRPLASCPSLHAVIESQPNIVIIRFESIMTNLEYPSPSEVFTKIRLVLEVLQKQLLDLPLDTDLENEKTSTVPLAEMLGDMIWEDLSECLIKNCLVYSIPTNSSKLQQYEEIIQSTEEFENALKEMRFLKGDTTDLLKYARNINSHFANKKCQDVIVAARNLMTSEIHNTVKIIPDSKINVPELPTPDEDNKLEVQKVSNTQYHEVMNLEPENTLDQHSFSLPTCRISESVKKLMELAYQTLLEATTSSDQCAVQLFYSVRNIFHLFHDVVPTYHKENLQKLPQLAAIHHNNCMYIAHHLLTLGHQFRLRLAPILCDGTATFVDLVPGFRRLGTECFLAQMRAQKGELLERLSSARNFSNMDDEENYSAASKAVRQVLHQLKRLGIVWQDVLPVNIYCKAMGTLLNTAISEVIGKITALEDISTEDGDRLYSLCKTVMDEGPQVFAPLSEESKNKKYQEEVPVYVPKWMPFKELMMMLQASLQEIGDRWADGKGPLAAAFSSSEVKALIRALFQNTERRAAALAKIK | 2.7 |
| hZW10 S55A (natural protein, human, UniProt O43264 1-779, looked up) MASFVTEVLAHSGRLEKEDLGTRISRLTRRVEEIKGEVCNMISKKYSEFLPSMQAAQGLITQVDKLSEDIDLLKSRIESEVRRDLHVSTGEFTDLKQQLERDSVVLSLLKQLQEFSTAIEEYNCALTEKKYVTGAQRLEEAQKCLKLLKSRKCFDLKILKSLSMELTIQKQNILYHLGEEWQKLIVWKFPPSKDTSSLESYLQTELHLYTEQSHKEEKTPMPPISSVLLAFSVLGELHSKLKSFGQMLLKYILRPLASCPSLHAVIESQPNIVIIRFESIMTNLEYPSPSEVFTKIRLVLEVLQKQLLDLPLDTDLENEKTSTVPLAEMLGDMIWEDLSECLIKNCLVYSIPTNSSKLQQYEEIIQSTEEFENALKEMRFLKGDTTDLLKYARNINSHFANKKCQDVIVAARNLMTSEIHNTVKIIPDSKINVPELPTPDEDNKLEVQKVSNTQYHEVMNLEPENTLDQHSFSLPTCRISESVKKLMELAYQTLLEATTSSDQCAVQLFYSVRNIFHLFHDVVPTYHKENLQKLPQLAAIHHNNCMYIAHHLLTLGHQFRLRLAPILCDGTATFVDLVPGFRRLGTECFLAQMRAQKGELLERLSSARNFSNMDDEENYSAASKAVRQVLHQLKRLGIVWQDVLPVNIYCKAMGTLLNTAISEVIGKITALEDISTEDGDRLYSLCKTVMDEGPQVFAPLSEESKNKKYQEEVPVYVPKWMPFKELMMMLQASLQEIGDRWADGKGPLAAAFSSSEVKALIRALFQNTERRAAALAKIK | 449 |
| hZW10 SE67AA (natural protein, human, UniProt O43264 1-779, looked up) MASFVTEVLAHSGRLEKEDLGTRISRLTRRVEEIKGEVCNMISKKYSEFLPSMQSAQGLITQVDKLAADIDLLKSRIESEVRRDLHVSTGEFTDLKQQLERDSVVLSLLKQLQEFSTAIEEYNCALTEKKYVTGAQRLEEAQKCLKLLKSRKCFDLKILKSLSMELTIQKQNILYHLGEEWQKLIVWKFPPSKDTSSLESYLQTELHLYTEQSHKEEKTPMPPISSVLLAFSVLGELHSKLKSFGQMLLKYILRPLASCPSLHAVIESQPNIVIIRFESIMTNLEYPSPSEVFTKIRLVLEVLQKQLLDLPLDTDLENEKTSTVPLAEMLGDMIWEDLSECLIKNCLVYSIPTNSSKLQQYEEIIQSTEEFENALKEMRFLKGDTTDLLKYARNINSHFANKKCQDVIVAARNLMTSEIHNTVKIIPDSKINVPELPTPDEDNKLEVQKVSNTQYHEVMNLEPENTLDQHSFSLPTCRISESVKKLMELAYQTLLEATTSSDQCAVQLFYSVRNIFHLFHDVVPTYHKENLQKLPQLAAIHHNNCMYIAHHLLTLGHQFRLRLAPILCDGTATFVDLVPGFRRLGTECFLAQMRAQKGELLERLSSARNFSNMDDEENYSAASKAVRQVLHQLKRLGIVWQDVLPVNIYCKAMGTLLNTAISEVIGKITALEDISTEDGDRLYSLCKTVMDEGPQVFAPLSEESKNKKYQEEVPVYVPKWMPFKELMMMLQASLQEIGDRWADGKGPLAAAFSSSEVKALIRALFQNTERRAAALAKIK | 1.8 |
